Here are results for four molecules from PMC3722096, “Crystal Structure of the N-Acetyltransferase Domain of Human N-Acetyl-L-Glutamate Synthase in Complex with N-Acetyl-L-Glutamate Provides Insights into Its Catalytic and Regulatory Mechanisms” (PLoS ONE, 2013).

In series [1] the target is NAT domain of mouse NAGS (mouse). In words: SEC; analytic gel filtration, Superdex 200 HR 10/30; 100 mM NaH2PO4 pH 7.4, 150 mM NaCl, 10% glycerol, 1 mM β-mercaptoethanol; weights from a standard curve. (SEC sorts molecules by how far they enter the pores of the column.)
Series [2] concerns the molecule itself. The series is described as above.
Series [3] deals with the molecule itself. In words: cross-linking; dimethyl suberimidate (4.5 µg) or suberic acid bis(3-sulfo-N-hydroxysuccinimide ester) sodium salt (9.0 µg), 10 µl of 200 mM triethanolamine pH 8.25, three hours at 298 K; SDS-PAGE, Coomassie (mNAGS) or silver (hNAGS) stain.

As for “NAT domain of mouse NAGS (domain or fragment)”, the stoichiometry N (as a rule, a count of units in the complex or per binding partner) in series [1] stood at 2.

B1: human NAGS N-acetyltransferase domain (residues 377-534), as used in gel filtration (domain or fragment, UniProt Q8N159 377-534, looked up)
chain: MLRVRSLDKLDQGRLVDLVNASFGKKLRDDYLASLRPRLHSIYVSEGYNAAAILTMEPVLGGTPYLDKFVVSSSRQGQGSGQMLWECLRRDLQTLFWRSRVTNPINPWYFKHSDGSFSNKQWIFFWFGLADIRDSYELVNHAKGLPDSFHKPASDPGS
notes: N-acetyltransferase (NAT) domain of human N-acetylglutamate synthase, residues 377-534; also called hNAT; hNAT domain
With B1, the “stoichiometry N” value in series [2] worked out at 2.

B2: complete human N-acetylglutamate synthase (enzyme, UniProt Q8N159 19-534, looked up)
chain: LRGRGGTGGARRLSCGARRRAARGTSPGRRLSTAWSQPQPPPEEYAGADDVSQSPVAEEPSWVPSPRPPVPHESPEPPSGRSLVQRDIQAFLNQCGASPGEARHWLTQFQTCHHSADKPFAVIEVDEEVLKCQQGVSSLAFALAFLQRMDMKPLVVLGLPAPTAPSGCLSFWEAKAQLAKSCKVLVDALRHNAAAAVPFFGGGSVLRAAEPAPHASYGGIVSVETDLLQWCLESGSIPILCPIGETAARRSVLLDSLEVTASLAKALRPTKIIFLNNTGGLRDSSHKVLSNVNLPADLDLVCNAEWVSTKERQQMRLIVDVLSRLPHHSSAVITAASTLLTELFSNKGSGTLFKNAERMLRVRSLDKLDQGRLVDLVNASFGKKLRDDYLASLRPRLHSIYVSEGYNAAAILTMEPVLGGTPYLDKFVVSSSRQGQGSGQMLWECLRRDLQTLFWRSRVTNPINPWYFKHSDGSFSNKQWIFFWFGLADIRDSYELVNHAKGLPDSFHKPASDPGS
notes: N-acetylglutamate synthase (NAGS, EC 2.3.1.1), human; the printed tetramer weight of 202.4 kDa gives 50.6 kDa a subunit; also called hNAGS; human NAGS
Consider B2, for which, in series [3], the “stoichiometry N” value is 4.

B3: complete mouse N-acetylglutamate synthase (enzyme, UniProt Q8R4H7 19-527, looked up)
chain: LRSPGGPGGSRRLSGSARRRGAKSASPGRRLSTARAHAEDAEGAKGRVQSPAVEEPSWTPLPTPLESPAPPAGRSLVQRDIQAFLNQCGASPGEARHWLTQFQTCYHSVDKPFAVMEVDEEVIRCPQAVSRLAFALAFLQRMDMKPLVVLGLPTPTAPSGCLSFWEAKAQLAQSCKVLVDELRHNAATAVPFFGGGSVLSAAEPAPHASYGGIVAVETDLLQWCLESNSIPILCPIGETAARRSVLLDSLEVTASLAKALQPTKIIFLNNSGGLRNNSQKILSNVNLPADLDLVTNAEWLSIKERQQIRLIVDVLSRLPHYSSAVITAASTLLTELFSNKGCGTLFKNAERMLRVRNLDSLDQGRLVNLVNASFGKKLREDYLESLRPRLHSIYVSEGYNAAAILTVEPVLGGTPYLDKFVVSSSRQGQGSGQMLWECLRRDLQTLFWRSRVTNPINPWYFKHSDGSFSNKQWIFFWFGLADIRDSYELVNHAKGLPDSFCKPASDPGS
notes: N-acetylglutamate synthase (NAGS, EC 2.3.1.1), mouse; the printed tetramer weight of 195.8 kDa gives 48.95 kDa a subunit; also called mNAGS; mouse NAGS
For B3, the “stoichiometry N” value in series [3] stood at 4.
